Experimental data: article PMC8368996, “Interactions between AMOT PPxY motifs and NEDD4L WW domains function in HIV-1 release” (The Journal of Biological Chemistry, 2021)

Tested on: full-length NEDD4L
Test: FP binding of Alexa Fluor-tagged recombinant AMOT1-300 to full-length recombinant NEDD4L
Description: A labeled peptide (GGG-ALEXA488) was added to AMOT1-300 (which carried a sortase tag) by transpeptidation with sortase. Typical reactions contained 10 to 50 μM AMOT1-300, 30 to 150 μM GGG-ALEXA488 peptide and 20 μM sortase enzyme in the reaction buffer (50 mM Tris [pH 7.5], 150 mM NaCl and 10 mM CaCl2). Reactions were allowed to proceed at either room temperature or 4 °C until the reaction was complete (typically 1–4 h). AMOT1-300–ALEXA488 was then purified by ion-exchange chromatography (SP HiTrap) as described above.
Each dilution series was performed at least in triplicate. […] The mean Kd values are reported as mean ± SEM.

B1: AMOT1-300: Alexa Fluor 488-tagged recombinant AMOT construct (residues 1–300) spanning all three PPxY motifs, labeled by sortase transpeptidation (protein)
chain: MRNSEEQPSGGTTVLQRLLQEQLRYGNPSENRSLLAIHQQATGNGPPFPSGSGNPGPQSDVLSPQDHHQQLVAHAARQEPQGQEIQSENLIMEKQLSPRMQNNEELPTYEEAKVQSQYFRGQQHASVGAAFYVTGVTNQKMRTEGRPSVQRLNPGKMHQDEGLRDLKQGHVRSLSERLMQMSLATSGVKAHPPVTSAPLSPPQPNDLYKNPTSSSEFYKAQGPLPNQHSLKGMEHRGPPPEYPFKGMPPQSVVCKPQEPGHFYSEHRLNQPGRTEGQLMRYQHPPEYGAARPAQDISLPL
modifications: GGG-ALEXA488 peptide added by transpeptidation with sortase; left off: His, end not stated, state not stated | sortase tag, end not stated, kept
notes: Alexa Fluor 488-tagged recombinant AMOT construct (residues 1–300) spanning all three PPxY motifs, labeled by sortase transpeptidation
Which results are given for B1?
fold tighter binding than the isolated AMOT PPxY1-NEDD4L WW3 complex (AMOT1-300-full-length NEDD4L vs PPxY1-WW3): 1.5 fold; apparent dissociation constant, AMOT1-300 with full-length NEDD4L (Fig. 3C/E, FP, Alexa Fluor 488-tagged AMOT1-300, full isotherm not sampled because of limited solubility of full-length NEDD4L): 2.7 ± 0.8 µM
